Test [1] addresses T1, soluble human FcRn (shFcRn) (human, UniProt P55899 24-297; P61769 21-119).
T1 construct: Biotinylated for the ELISA, amine-coupled to a CM5 chip for SPR; also called biotinylated shFcRn
As to the kind of experiment: IgG competition ELISA. Background: An ELISA detects its analyte on a solid surface through an enzyme-linked reagent.
Description: (§1) The wells were coated with 100 μl/well of 1 μg/ml biotinylated-shFcRn in Buffer A. The plate was sealed and incubated at 37° C. for 2 hours. Afterwards, the plate was washed with 200 μl/well of Buffer B (Buffer B: 100 mM MES pH 6, 150 mM NaCl, 0.5% BSA IgG-free (Jackson ImmunoResearch, West Grove, Pa.), 0.05% Tween-20). […] To allow for mixing, the plate was rocked for 2 minutes, sealed and incubated at 37° C. for 2 hours. […] The plate was covered, incubated for 30 minutes at room temperature and washed 4 times with 200 μl/well of ice-cold buffer B. SureBlue TMB substrate solution (100 μl/well, KPL, Gaithersburg, Md.) was added and the plate was allowed to incubate at room temperature until color developed, which took 5 to 10 minutes. Once color developed, 100 μl/well of TMB stop solution (KPL, Gaithersburg, Md.) was added and the absorbance was measured at 450 nm. The data was plotted as absorbance vs. peptide concentration to derive the inhibitory concentration 50% (IC₅₀) values.

Test [2] addresses T1, soluble human FcRn (shFcRn). As to the kind of experiment: SPR pH 6; 4-PyridylAla in place of His.
Description: (§2) The following steps were performed to cross-link soluble human or cynomolgus FcRn to the dextran surface of a CM5 sensor chip (Biacore AB, Uppsala, Sweden) by an amine coupling reaction involving 1-ethyl-(3-dimethylaminopropyl)-carbodiimide hydrochloride (EDC) (Biacore AB, Uppsala, Sweden) and N-hydroxysuccinimide (NHS) (Biacore AB, Uppsala, Sweden) as recommended by Biacore (BIAapplications Handbook, version AB, section 4.2, Biacore AB, Uppsala, Sweden). […] Residual sites on the FcRn flow cell were blocked with 1 M ethanolamine hydrochloride pH 8.5 (Biacore AB, Uppsala, Sweden). A control flow cell was blocked with ethanolamine for reference subtraction. For analysis of the monomeric peptides, FcRn was coated to a final density of 4000-5000 response units (RU). For analysis of the peptide dimers, FcRn was coated to a density of 2000-2500 RU. All SPR measurements were performed using a BIACORE 3000 Instrument (Biacore AB Uppsala, Sweden). For measurements done at either pH 6 or pH 7.4, experiments were performed in 50 mM phosphate, 100 mM sodium chloride, 0.01% surfactant P20 (Biacore AB, Uppsala, Sweden).
(§3) Ten, 2-fold dilutions of the peptide were injected over the FcRn-CM5 chip at a rate of 20 μl/min for 2 min. The peptide was dissociated from the chip for 2.5 minutes with buffer. […] Sensorgrams were generated and analyzed using BiaEval software version 3.1 (Biacore AB, Uppsala, Sweden). […]
The target is the same in test [3]. As to the kind of experiment: SPR pH 7.4; 4-PyridylAla in place of His.
Description: as §2, §3
For test [4] the target is unchanged. Description: IgG competition ELISA. The source holds these as a separate data set.
Description: as §1
Test [5] has the same target. As to the kind of experiment: SPR pH 6; 4-PiperidylAla in place of His.
Description: as §2, §3
For test [6] the target is unchanged. Description: SPR pH 7.4; 4-PiperidylAla in place of His.
Description: as §2, §3
Test [7] has the same target. As to the kind of experiment: SPR pH 6; Orn in place of His.
Description: as §2, §3
Test [8] shares this target. As to the kind of experiment: IgG competition ELISA. The source holds these as a separate data set.
Description: as §1
Test [9] shares this target. Description: SPR pH 7.4; ThienylAla in place of His.
Description: as §2, §3
Test [10] has the same target. As to the kind of experiment: SPR pH 6; ThienylAla in place of His.
Description: as §2, §3
For test [11] the target is unchanged. Description: SPR pH 7.4.
Description: as §2, §3
For test [12] the target is unchanged. As to the kind of experiment: SPR pH 6.
Description: as §2
(§4) Ten, 2-fold dilutions of the peptide were injected over the FcRn-CM5 chip at a rate of 20 μl/min for 2 min. The peptide was dissociated from the chip for 2.5 minutes with buffer. Any remaining peptide was removed from the chip with a 30 second injection of HBS-P buffer (Biacore AB, Uppsala, Sweden) at a rate of 30 μl/min. Sensorgrams were generated and analyzed using BiaEval software version 3.1 (Biacore AB, Uppsala, Sweden). The equilibrium RU observed for each injection was plotted against concentration. The equilibrium KD values were derived by analysis of the plots using the steady state affinity model included in the BiaEval software.
For test [13] the target is unchanged. As to the kind of experiment: SPR pH 7.4. The source holds these as a separate data set.
Description: as §2, §3
Test [14] shares this target. Description: SPR pH 6. This is another data set of the same source.
Description: as §2, §3
Test [15] shares this target. Description: SPR pH 6. The source holds these as a separate data set.
Description: as §2, §4
For test [16] the target is unchanged. Description: SPR pH 6. This is another data set of the same source.
Description: as §2, §3
Test [17] shares this target. Description: SPR pH 6. The source holds these as a separate data set.
Description: as §2, §4
Test [18] has the same target. Description: IgG competition ELISA. This is another data set of the same source.
Description: as §1
The target is the same in test [19]. As to the kind of experiment: SPR pH 6. This is another data set of the same source.
Description: as §2, §3
Test [20] shares this target. Description: SPR pH 6. The source holds these as a separate data set.
Description: as §2, §4
Test [21] shares this target. Description: IgG competition ELISA. The source holds these as a separate data set.
Description: as §1
Test [22] has the same target. Description: SPR pH 6. The source holds these as a separate data set.
Description: as §2, §4
The target is the same in test [23]. Description: IgG competition ELISA. This is another data set of the same source.
Description: as §1
The target is the same in test [24]. Description: SPR pH 6. The source holds these as a separate data set.
Description: as §2, §4
For test [25] the target is unchanged. Description: IgG competition ELISA. This is another data set of the same source.
Description: as §1
Test [26] has the same target. As to the kind of experiment: SPR pH 6. The source holds these as a separate data set.
Description: as §2, §3
The target is the same in test [27]. Description: IgG competition ELISA. The source holds these as a separate data set.
Description: as §1
For test [28] the target is unchanged. Description: IgG competition ELISA. This is another data set of the same source.
Description: as §1
Test [29] has the same target. Description: IgG competition ELISA. This is another data set of the same source.
Test [30] shares this target. Description: SPR pH 6. The source holds these as a separate data set.
Description: as §2, §4
For test [31] the target is unchanged. Description: IgG competition ELISA. This is another data set of the same source.
Description: as §1
Test [32] has the same target. Description: IgG competition ELISA. The source holds these as a separate data set.
Description: as §1
Test [33] has the same target. Description: IgG competition ELISA. The source holds these as a separate data set.
Description: as §1
Test [34] shares this target. As to the kind of experiment: SPR pH 6; 3PyridylAla in place of His.
Description: as §2, §3
For test [35] the target is unchanged. Description: SPR pH 7.4; 3PyridylAla in place of His.
Description: as §2, §3
For test [36] the target is unchanged. As to the kind of experiment: SPR pH 6; 2-PyrrolidinylAla in place of His.
Description: as §2, §3

Read-outs that look alike come from different tables or passages of the source. Bridge positions count the residues as written; N and C are the ends. Square brackets hold non-standard residues; d marks the D form. Ends that are not written are not given here. NMeL = CN[C@@H](CC(C)C)C(=O)O; Pen = CC(C)(S)[C@H](N)C(=O)O; Sar = CNCC(=O)O A value given as a limit tells only on which side of the number the result lay.

T1 sequence (P55899 24-297 limits assumed, chain 1 of 2): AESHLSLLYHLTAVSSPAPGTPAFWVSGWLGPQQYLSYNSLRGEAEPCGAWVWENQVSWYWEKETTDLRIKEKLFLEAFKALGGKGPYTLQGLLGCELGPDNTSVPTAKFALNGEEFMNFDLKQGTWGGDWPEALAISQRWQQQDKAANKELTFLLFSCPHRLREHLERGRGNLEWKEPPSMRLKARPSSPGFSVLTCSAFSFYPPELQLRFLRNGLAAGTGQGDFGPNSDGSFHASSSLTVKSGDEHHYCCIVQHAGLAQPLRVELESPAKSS
T1 sequence (P61769 21-119 limits assumed, chain 2 of 2): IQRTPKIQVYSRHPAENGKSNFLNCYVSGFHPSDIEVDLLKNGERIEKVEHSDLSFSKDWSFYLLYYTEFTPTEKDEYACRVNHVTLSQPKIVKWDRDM

By IC50 is commonly meant the concentration that gives 50% inhibition. Read a low IC50 as higher potency. A word on the Kd: it is the concentration at which binding is half-saturated. Higher therefore signals weaker binding. With RFCTGXFGGLYPC (Pen 3; 4-PyridylAla 6; Sar 9; NMeLeu 10; disulfide 3-13; C-terminal amide) [Peptide No. 268], the IC50 in test [1] is 1.3 µM. Also, the dissociation constant (Kd) in test [2] was 0.067 µM; in test [3], 0.28 µM.
The molecule QRFVTGHFG[dP]LYPVNGP-NH2 [Peptide No. 167] came in with an IC50 in test [4] of 93 µM.
RFCTGXFGGLYPC (Pen 3; 4-PiperidylAla 6; Sar 9; NMeLeu 10; disulfide 3-13; C-terminal amide) [Peptide No. 264]: the values for the dissociation constant Kd in [5] and in [6] were 5.2 µM and 6.4 µM, respectively. The same molecule had an IC50 in test [1] of 85 µM.
The molecule RFCTGXFGGLYPC (Pen 3; Orn 6; Sar 9; NMeL 10; disulfide 3-13; C-terminal amide) [Peptide No. 254] showed a Kd in test [7] of 1.3 µM.

B1: Peptide No. 289 (peptide)
peptide: RF[Pen]TGHFG[Sar][NMeL]YPC-NH2
modifications: disulfide 3-13; also: dimer: N-termini joined by an Asp linker carrying PEG 30 kDa, further groups not given here
notes: site of PEG only in drawing CHEM-US-00136; also called Pegylated Analog of Peptide No. 285
As to B1, the IC50 in test [8] was 0.018 µM.
On to RFCTGXFGGLYPC (Pen 3; ThienylAla 6; Sar 9; NMeL 10; disulfide 3-13; C-terminal amide) [Peptide No. 251], for which the Kd in test [9] is 3 µM; in test [10], 2 µM. The IC50 in [1] came out at 45 µM.

B2: Peptide No. 24 (peptide)
peptide: QRFCTGHF[dA][dA]LYPCNGP-NH2
modifications: disulfide 4-14; N-terminus assumed
SMILES: CC(C)C[C@@H]1NC(=O)[C@@H](C)NC(=O)[C@@H](C)NC(=O)[C@H](Cc2ccccc2)NC(=O)[C@H](Cc2c[nH]cn2)NC(=O)CNC(=O)[C@H]([C@@H](C)O)NC(=O)[C@@H](NC(=O)[C@H](Cc2ccccc2)NC(=O)[C@H](CCCNC(=N)N)NC(=O)[C@@H](N)CCC(N)=O)CSSC[C@@H](C(=O)N[C@@H](CC(N)=O)C(=O)NCC(=O)N2CCC[C@H]2C(N)=O)NC(=O)[C@@H]2CCCN2C(=O)[C@H](Cc2ccc(O)cc2)NC1=O
B2 displayed a Kd in [11] above 250 µM.

B3: Peptide No. 84 (peptide)
peptide: QRF[Pen]TGHFGGHYPCNGP-NH2
modifications: disulfide 4-14; N-terminus assumed
SMILES: C[C@@H](O)[C@@H]1NC(=O)[C@@H](NC(=O)[C@H](Cc2ccccc2)NC(=O)[C@H](CCCNC(=N)N)NC(=O)[C@@H](N)CCC(N)=O)C(C)(C)SSC[C@@H](C(=O)N[C@@H](CC(N)=O)C(=O)NCC(=O)N2CCC[C@H]2C(N)=O)NC(=O)[C@@H]2CCCN2C(=O)[C@H](Cc2ccc(O)cc2)NC(=O)[C@H](Cc2c[nH]cn2)NC(=O)CNC(=O)CNC(=O)[C@H](Cc2ccccc2)NC(=O)[C@H](Cc2c[nH]cn2)NC(=O)CNC1=O
For the molecule B3, the Kd in test [12] is 0.38 µM; in test [13], 2.5 µM.

B4: Peptide No. 32 (peptide)
peptide: QRF[Pen]TGHFGGLYPCNGP-NH2
modifications: disulfide 4-14; N-terminus assumed
SMILES: CC(C)C[C@@H]1NC(=O)CNC(=O)CNC(=O)[C@H](Cc2ccccc2)NC(=O)[C@H](Cc2c[nH]cn2)NC(=O)CNC(=O)[C@H]([C@@H](C)O)NC(=O)[C@@H](NC(=O)[C@H](Cc2ccccc2)NC(=O)[C@H](CCCNC(=N)N)NC(=O)[C@@H](N)CCC(N)=O)C(C)(C)SSC[C@@H](C(=O)N[C@@H](CC(N)=O)C(=O)NCC(=O)N2CCC[C@H]2C(N)=O)NC(=O)[C@@H]2CCCN2C(=O)[C@H](Cc2ccc(O)cc2)NC1=O
Turning to B4, the Kd in test [14], in test [15], in [16], in [17], in test [12] and in test [19] was 0.25 µM throughout. Moreover, the Kd in test [20], in test [22], in [24], in [26] and in [30] was 0.25 µM throughout. The IC50 in [18], in test [1], in test [21], in test [23], in test [25] and in test [27] was 2 µM throughout. Moreover, the IC50 in test [28], in [29], in [31], in [32] and in [33] was 2 µM each time.
RFCTGXFGGLYPC (Pen 3; 3PyridylAla 6; Sar 9; NMeL 10; disulfide 3-13; C-terminal amide) [Peptide No. 250]: the IC50 in test [1] is 1.2 µM. Further, the Kd is 0.064 µM in test [34] and 0.26 µM in [35].
RFCTGXFGGLYPC (Pen 3; 2-PyrrolidinylAla 6; Sar 9; NMeLeu 10; disulfide 3-13; C-terminal amide) [Peptide No. 262]: the Kd in test [36] came out at 8.4 µM.
